From patent US20050080013A1 (Pfizer, published 2005)
Non-standard residues stand in square brackets, D forms with d. No end group written: not given here. *: point of attachment. Nal = naphthylalanine (isomer not specified); Dansyl = CN(C)c1cccc2c(S(=O)(=O)*)cccc12; Aib = CC(C)(N)C(=O)O

T1: lecithin:cholesterol acyltransferase (LCAT), purified from human plasma (human, UniProt P04180 25-440)
T1 sequence (looked up): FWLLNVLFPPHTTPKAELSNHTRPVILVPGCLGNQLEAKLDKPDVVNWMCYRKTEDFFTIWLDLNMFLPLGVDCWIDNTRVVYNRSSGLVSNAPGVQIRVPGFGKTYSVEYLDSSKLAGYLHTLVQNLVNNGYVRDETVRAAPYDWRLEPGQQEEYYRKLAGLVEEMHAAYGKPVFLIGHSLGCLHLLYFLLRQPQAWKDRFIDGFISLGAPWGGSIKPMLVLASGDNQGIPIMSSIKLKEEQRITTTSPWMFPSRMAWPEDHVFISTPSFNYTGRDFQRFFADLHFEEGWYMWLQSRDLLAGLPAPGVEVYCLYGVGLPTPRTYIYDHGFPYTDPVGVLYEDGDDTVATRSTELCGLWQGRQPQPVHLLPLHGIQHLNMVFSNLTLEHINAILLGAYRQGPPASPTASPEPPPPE


These binders were tested against T1, lecithin:cholesterol acyltransferase … (assay: cell-based or functional assay).

Binder	ACTIVITY (%) LCAT
PVLDLFREGLNELLEALKQKLK [peptide 20]	57%
Ac-PVLDLFREGLEELKQKLK-NH2 [peptide 228]	0%
Ac-PVLDLFRELLEEGKQKLK-NH2 [peptide 229]	0%
LDDLLQKWAEAFNQLLKK [peptide 237]	11%
Ac-EWLKAFYEKVLEKLKELF-NH2 [peptide 238]	19%
Ac-EWLEAFYKKVLEKLKELF-NH2 [peptide 239]	11%
Ac-DWLKAFYDKVAEKLKEAF-NH2 [peptide 240]	10%
DWFKAFYDKVFEKFKEFF [peptide 241]	8%
GIKKFLGSIWKFIKAFVG [peptide 242]	7%
DWFKAFYDKVAEKFKEAF [peptide 243]	5%
DWLKAFYDKVAEKLKEAF [peptide 244]	5%
XVLDLFRELLNELLEALKQKLK (D-Pro (p) at 1) [peptide 21]	57%
DWLKAFYDKVFEKFKEFF [peptide 245]	4%
EWLEAFYKKVLEKLKELF [peptide 246]	4%
DWFKAFYDKFFEKFKEFF [peptide 247]	3%
PVLDLFRELLNELLEGLKQKLK [peptide 22]	54%
PLLELFKELLQELLEALKQKLK [peptide 23]	54%
PVLDLFRELLNELLEALQKKLK [peptide 24]	53%
PVLDFFRELLNE[Aib]LEALKQKLK [peptide 25]	51%
PVLDLFRELLNELLELLKQKLK [peptide 26]	47%
PVLDLFRELLNEL[Nal]EALKQKLK (not fully specified) [peptide 27]	44%

Binder	ACTIVITY (%) LCAT
PVLDLFRELLNELWEALKQKLK [peptide 28]	40%
AVLDLFRELLNELLEALKQKLK [peptide 29]	39%
PVLDLFRELLNELLEWLKQKLK [peptide 3]	98%
Dansyl-PVLDLFRELLNELLEALKQKLK [peptide 30]	38%
PVLDLFLELLNE[Aib]LEALKQKLK [peptide 31]	34%
[Aib]VLDLFRELLNELLEALKQKLK [peptide 32]	33%
PVLDLFREKLNELLEALKQKLK [peptide 33]	33%
PVLD[Nal]FRELLNELLEALKQKLK (not fully specified) [peptide 34]	32%
PVLDWFRELLNELLEALKQKLK [peptide 35]	31%
PLLELLKELLQELLEALKQKLK [peptide 36]	31%
PVLDLFREWLNELLEALKQKLK [peptide 37]	29%
PVLDLFRELLNE[Aib]LEAWKQKLK [peptide 38]	29%
PVLDLFRELLEELLKALKKKLK [peptide 39]	25%
PVLDLFRELLNELLEALKQKLK [peptide 4]	93%
PVLDLFNELLRELLEALQKKLK [peptide 40]	25%
PVLDLWRELLNE[Aib]LEALKQKLK [peptide 41]	25%
PVLDEFREKLNE[Aib]WEALKQKLK [peptide 42]	25%
PVLDEFREKLWE[Aib]LEALKQKLK [peptide 43]	25%
[dP][dV][dL][dD][dE][dF][dR][dE][dK][dL][dN][dE][Aib][dL][dE][dA][dL][dK][dQ][dK][dL][dK] [peptide 44]	25%
PVLDEFREKLNE[Aib]LEALKQKLK [peptide 45]	24%
PVLDLFREKLNE[Aib]LEALKQKLK [peptide 46]	23%

Binder	ACTIVITY (%) LCAT
VLDLFRELLNEGLEALKQKLK [peptide 47]	23%
XXLDLFRELLNELLEALKQKLK (D-Pro (p) at 1, D-Val (v) at 2) [peptide 48]	22%
PVLDLFRNLLEKLLEALEQKLK [peptide 49]	22%
XVLDLFRELLNELLEALKQKLKK (D-Pro (p) at 1) [peptide 5]	90%
PVLDLFRELLWE[Aib]LEALKQKLK [peptide 50]	21%
PVLDLFWELLNE[Aib]LEALKQKLK [peptide 51]	20%
PVWDEFREKLNE[Aib]LEALKQKLK [peptide 52]	20%
VVLDLFRELLNELLEALKQKLK [peptide 53]	19%
PVLDLFRELLNEWLEALKQKLK [peptide 54]	19%
PLFRELLNELLEALKQKLK [peptide 55]	19%
PVLDLFRELLNELLEALKQKKK [peptide 56]	18%
PVLDLFRNLLEELLKALEQKLK [peptide 57]	18%
PVLDEFREKLNE[Aib]LEALKQKL [peptide 58]	18%
LVLDLFRELLNELLEALKQKLK [peptide 59]	17%
PVLDLFRELLNE[Aib]LEALKQKLK [peptide 6]	80%
PVLDLFRELLNELLEALKQ [peptide 60]	16%
PVLDEFRWKLNE[Aib]LEALKQKLK [peptide 61]	16%
PVLDEWREKLNE[Aib]LEALKQKLK [peptide 62]	16%
PVLDFFREKLNE[Aib]LEALKQKLK [peptide 63]	16%
